Target: T1, rhesus CD11a (rhesus) (UniProt H9Z8N3)
T1 sequence: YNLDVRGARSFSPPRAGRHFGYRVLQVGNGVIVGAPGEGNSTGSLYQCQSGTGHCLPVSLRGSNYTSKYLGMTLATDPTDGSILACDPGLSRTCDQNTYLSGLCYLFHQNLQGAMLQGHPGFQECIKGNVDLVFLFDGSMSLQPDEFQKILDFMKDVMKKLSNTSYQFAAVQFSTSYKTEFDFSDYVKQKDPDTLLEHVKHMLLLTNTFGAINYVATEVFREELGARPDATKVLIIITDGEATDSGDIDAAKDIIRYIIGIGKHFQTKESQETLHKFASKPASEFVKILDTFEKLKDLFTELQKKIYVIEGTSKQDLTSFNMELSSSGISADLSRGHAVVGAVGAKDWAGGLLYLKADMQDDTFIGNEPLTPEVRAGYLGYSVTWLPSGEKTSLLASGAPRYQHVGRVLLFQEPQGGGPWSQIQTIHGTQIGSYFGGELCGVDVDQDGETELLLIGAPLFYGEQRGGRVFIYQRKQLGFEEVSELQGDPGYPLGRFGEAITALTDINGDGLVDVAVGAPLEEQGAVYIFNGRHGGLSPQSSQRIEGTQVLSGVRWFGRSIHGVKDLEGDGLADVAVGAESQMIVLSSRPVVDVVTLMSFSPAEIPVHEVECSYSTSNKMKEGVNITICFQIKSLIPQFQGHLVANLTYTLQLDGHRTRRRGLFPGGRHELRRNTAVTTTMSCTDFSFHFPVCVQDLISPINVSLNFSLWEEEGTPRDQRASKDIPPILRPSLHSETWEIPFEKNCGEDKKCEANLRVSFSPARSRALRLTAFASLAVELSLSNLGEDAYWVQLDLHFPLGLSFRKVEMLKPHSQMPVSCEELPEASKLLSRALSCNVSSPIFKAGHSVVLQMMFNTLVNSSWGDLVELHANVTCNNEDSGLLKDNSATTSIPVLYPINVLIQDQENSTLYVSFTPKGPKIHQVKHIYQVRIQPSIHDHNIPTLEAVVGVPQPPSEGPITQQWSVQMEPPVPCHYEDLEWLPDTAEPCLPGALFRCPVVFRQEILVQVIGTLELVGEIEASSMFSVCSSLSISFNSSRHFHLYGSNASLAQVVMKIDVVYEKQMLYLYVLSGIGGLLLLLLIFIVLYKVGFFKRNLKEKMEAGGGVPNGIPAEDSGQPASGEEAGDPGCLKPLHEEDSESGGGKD
Test: rhesus PBL binding

Var.EC50/HuIgG1 EC50: 13.3
B1: HuIgG1 mutant SerL52Ala (antibody, V domains shown)
VH: EVQLVESGGGLVQPGGSLRLSCAASGYSFTGHWMNWVRQAPGKGLEWVGMIHPSDSETRYNQKFKDRFTISVDKSKNTLYLQMNSLRAEDTAVYYCARGIYFYGTTYFDYWGQGTLVTVSS
VL: DIQMTQSPSSLSASVGDRVTITCRASKTISKYLAWYQQKPGKAPKLLIYSGATLQSGVPSRFSGSGSGTDFTLTISSLQPEDFATYYCQQHNEYPLTFGQGTKVEIKR

Source: patent US20040146507A1
